This experiment deals with proton-dissociation-permeated sodium channel (PDPNaC1) (Scolopendra subspinipes mutilans). The experiment in a line: cryo-EM structure; purified PDPNaC1 in LMNG/CHS, pH 8.0, 4.0 mg/mL; 121,831 particles, C3 symmetry, 3.03 Å; closed (non-conductive) state.

Experimental findings from paper PMC12714832 are described below.

Usually stoichiometry N stands for a count of units in the complex or per binding partner. “proton-dissociation-permeated sodium channel (PDPNaC1) (natural protein)” showed a stoichiometry N of 3.
